In US20190338269:

Tests used:
[1] = biological target: T1, Opti-HEK-VKOR-IIa (FX-IIa with the factor X signal peptide and factor X propeptide variant, co-expressed with human VKOR in HEK, aptamer-purified)
T1 chain 1: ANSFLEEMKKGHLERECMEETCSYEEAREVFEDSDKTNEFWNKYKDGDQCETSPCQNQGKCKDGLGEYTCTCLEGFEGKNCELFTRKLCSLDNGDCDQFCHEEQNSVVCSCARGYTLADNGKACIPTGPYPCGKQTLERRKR
T1 chain 2: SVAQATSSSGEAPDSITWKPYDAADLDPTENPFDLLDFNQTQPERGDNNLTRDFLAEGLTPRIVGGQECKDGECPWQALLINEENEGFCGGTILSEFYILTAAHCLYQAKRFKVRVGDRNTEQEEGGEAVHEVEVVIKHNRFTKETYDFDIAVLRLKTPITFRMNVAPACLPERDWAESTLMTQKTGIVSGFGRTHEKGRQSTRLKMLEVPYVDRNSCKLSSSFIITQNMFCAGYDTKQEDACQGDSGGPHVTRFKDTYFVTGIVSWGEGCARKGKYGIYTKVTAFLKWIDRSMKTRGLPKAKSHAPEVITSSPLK

[2] = biological target: T2, FVIIv1-psFX-IIa-F2 (FX-IIa expressed with the factor X signal peptide and the FVII isoform v1 propeptide, from HEK, aptamer-purified)
T2 chain 1: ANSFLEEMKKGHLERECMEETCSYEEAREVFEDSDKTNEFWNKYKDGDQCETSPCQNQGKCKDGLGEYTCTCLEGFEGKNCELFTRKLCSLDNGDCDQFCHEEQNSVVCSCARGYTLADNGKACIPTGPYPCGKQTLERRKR
T2 chain 2: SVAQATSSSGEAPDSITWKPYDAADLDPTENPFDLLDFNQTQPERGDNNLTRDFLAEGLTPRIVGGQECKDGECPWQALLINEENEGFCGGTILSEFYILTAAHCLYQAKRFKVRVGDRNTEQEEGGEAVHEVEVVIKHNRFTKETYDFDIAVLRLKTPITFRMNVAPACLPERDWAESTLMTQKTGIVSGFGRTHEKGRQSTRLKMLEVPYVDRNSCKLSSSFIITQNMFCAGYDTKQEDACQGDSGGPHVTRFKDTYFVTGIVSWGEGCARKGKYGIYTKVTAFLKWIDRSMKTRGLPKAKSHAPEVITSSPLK

B1: factor VIIa/tissue factor (TF) complex (protein)
chain 1: ANAFLEELRPGSLERECKEEQCSFEEAREIFKDAERTKLFWISYSDGDQCASSPCQNGGSCKDQLQSYICFCLPAFEGRNCETHKDDQLICVNENGGCEQYCSDHTGTKRSCRCHEGYSLLADGVSCTPTVEYPCGKIPILEKRNASKPQGRIVGGKVCPKGECPWQVLLLVNGAQLCGGTLINTIWVVSAAHCFDKIKNWRNLIAVLGEHDLSEHDGDEQSRRVAQVIIPSTYVPGTTNHDIALLRLHQPVVLTDHVVPLCLPERTFSERTLAFVRFSLVSGWGQLLDRGATALELMVLNVPRLMTQDCLQQSRKVGDSPNITEYMFCAGYSDGSKDSCKGDSGGPHATHYRGTWYLTGIVSWGQGCATVGHFGVYTRVSQYIEWLQKLMRSEPRPGVLLRAPFP
chain 2: SGTTNTVAAYNLTWKSTNFKTILEWEPKPVNQVYTVQISTKSGDWKSKCFYTTDTECDLTDEIVKDVKQTYLARVFSYPAGNVESTGSAGEPLYENSPEFTPYLETNLGQPTIQSFEQVGTKVNVTVEDERTLVRRNNTFLSLRDVFGKDLIYTLYYWKSSSSGKKTAKTNTNEFLIDVDKGENYCFSVQAVIPSRTVNRKSTDSPVECMGQEKGEFREIFYIIGAVVFVVIILVIILAISLHKCRKAGVGQSWKENSPLNVS
FXa generated after incubation with FVIIa/TF (rate of hydrolysis of PNAPEP substrate), percent of the plasma FXa control [1]: 27% activated relative to the FXa for Opti-HEK-VKOR-IIa | FXa generated after incubation with FVIIa/TF (rate of hydrolysis of PNAPEP substrate), percent of the plasma FXa control [2]: 36% activated relative to the FXa for FVIIv1-psFX-IIa-F2 | activity after FVIIa/TF activation, percent of that of the molecule containing the wild-type propeptide (Opti-HEK-VKOR-IIa) [2]: an activity of 142% of that of the molecule containing the wild-type propeptide
